Source: US20250313644A1 (FUTUREGEN BIOPHARMACEUTICAL BEIJING, published 2025)
Numbering of substitutions follows the chain as printed.

Assays:
human TL1A (HuTL1A) [1] = target: T1, human TL1A (HuTL1A) (human, UniProt O95150 57-251, limits assumed, biotin-labelled in some assays (site not stated)); experiment: DLS, antigen and antibody mixed in equal moles
T1 construct: Expressed in EXPI-293 cells and purified by Ni-NTA (His-tag); Described as a trimeric antigen; also called TL1A antigen; WT
T1 sequence: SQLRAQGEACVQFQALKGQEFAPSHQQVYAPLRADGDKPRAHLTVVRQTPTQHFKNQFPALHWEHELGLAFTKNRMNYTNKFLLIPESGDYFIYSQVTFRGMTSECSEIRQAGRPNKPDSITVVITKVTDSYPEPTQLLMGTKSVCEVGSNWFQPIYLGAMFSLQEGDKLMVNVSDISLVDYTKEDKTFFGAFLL
Procedure: 60 μM antigen and antibody was mixed in equal moles, incubated at room temperature for 30 minutes, and then the molecular size was detected using UNCLE or SEC.

human TL1A (HuTL1A) [2] = target: T1, human TL1A (HuTL1A); experiment: cell-based or functional assay
human TL1A (HuTL1A) [3] = target: T1, human TL1A (HuTL1A); experiment: ELISA: biotin-HuTL1A on streptavidin plate, antibody diluted at pH 7.4, HRP-anti-human Fc, OD450
Procedure: (§1) Corresponding antibodies were added to specific wells, and the antibodies were diluted with sodium dihydrogen phosphate-citrate buffer at pH 7.4, pH 6.0, pH 5.8, or pH 5.6. Binding assay was carried out at room temperature for 30 minutes. After the incubation, the excess antibodies were removed and the wells were washed by PBST. HRP-anti-Human Fc (Sino Biological) was then added into each well and incubated for 30 minutes to detect the bound antibody. The substrate TMB was finally added to develop color for 5-10 minutes. The color development reaction was terminated with 1M sulfuric acid. OD450 nm was recorded on a microplate reader, and the data were processed and fitted by 4 parameter logistic regression.

human TL1A (HuTL1A) [4] = target: T1, human TL1A (HuTL1A); experiment: as above; remark: listed apart in the source
Procedure: as §1

human TL1A (HuTL1A) [5] = target: T1, human TL1A (HuTL1A); experiment: ELISA: biotin-HuTL1A on streptavidin plate, antibody diluted at pH 6.0, HRP-anti-human Fc, OD450
Procedure: as §1

human TL1A (HuTL1A) [6] = target: T1, human TL1A (HuTL1A); experiment: BLI (Gator), biotin-HuTL1A on SA probe, pH 7.4; BLI (Gator), pH 7.4
Procedure: The binding kinetics between monoclonal antibodies and antigens was measured using Gator, a label-free biomolecule interaction analyzer based on the principle of biolayer interference (BLI). […] Then a serial dilutions of single-arm M701 antibodies and control antibodies were added. The antibodies interacted with the antigen captured by the SA probe, and the interaction was analyzed by detecting the signal change of the reflection interference spectrum of the probe surface, and finally the binding kinetics constants of the antibodies were calculated. The kinetic constants of antigen and antibodies were measured at pH 7.4 and 5.6 in sodium dihydrogen phosphate-citrate buffer.

[7] = target: T2, cynomolgus monkey/rhesus monkey TL1A (cynomolgus monkey/rhesus monkey); experiment: BLI (Gator), His-tagged TL1A on anti-His probe, pH 7.4
T2 construct: also called Cynomolgus/rhesus monkey TL1A
Procedure: (§2) Then a serial dilutions of single-arm M701 antibodies and control antibodies were added.

human TL1A (HuTL1A) [8] = target: T1, human TL1A (HuTL1A); experiment: as above
Procedure: as §2

B1: M701-3912 (antibody, human IgG1, kappa, L234A L235A, V domains shown)
VH: ELQLQESGPGLVKPSETLSLTCAVSGISFNDFHWAWIRQPPGKGLEWIGDINHRGHTSYNPSLKSRVTVSVDTSKNQFSLKLSSVTAADTAVYYCARDYPNFTFDLWGQGTLVTVSS
VL: DIQMTQSPATLSLSPGERATLSCRASQSVSTYLAWYQQKPGQAPRLLIYGASRRATGIPARFSGSGSGTDFTLTISSLQSEDFAVYYCQQYGDTPLTFGQGTKVEIKR
notes: Fc-engineered IgG1
With B1 the “Ave Z-dia (nm) of the antigen-antibody complex” value (shortened to “Ave Z-dia (nm)”) (human TL1A (HuTL1A) [1]) was 18.5 nm.

B2: M701-3756 (antibody, human IgG1, kappa, L234A L235A, V domains shown)
VH: ELQLQESGPGLVKPSETLSLTCAVSGLSFTDFYWAWIRQPPGKGLEWIGEINHKGNTSYNPSLKSRVTVSIDTSKNQFSLKLSSVTAADTAVYFCARDFPNYTFDFWGQGTLVTVSS
VL: DIQLTQSPGTLSLSPGERATLSCRASQSVSNHLAWYQQKPGQAPRLLIYGASKRATGIPDRFSGSGSGTDFTLTISRLEPEDFAVYYCQQYADAPLTFGQGTKVEIKR
notes: Fc-engineered IgG1; from the original phage library
B2 was tested, and the “IC50 (read off the curve); SEAP reporter in HEK293T/DR3-NFκB cells with soluble TL1A, OD655” value (human TL1A (HuTL1A) [2]) was ~1 nM and the “Ave Z-dia (nm)” value (human TL1A (HuTL1A) [1]) was 19.1 nm.

B3: M701-3876 (antibody, human IgG1, kappa, L234A L235A, V domains shown)
VH: EVQLQESGPGLVKPSETLSLTCAVSGVSYSDYHWAWIRQPPGKGLEWIGDINHKGKTNYNPSLKSRVTISVDTSKNQFSLKLSSVTAADTAVYYCARDYPNFLFDYWGQGTLVTVSS
VL: B2 VL with D1A, L4M, N31S, K53R, D60A, A94S
notes: Fc-engineered IgG1
For B3, the “IC50 (read off the curve); SEAP reporter in HEK293T/DR3-NFκB cells with soluble TL1A, OD655” value (human TL1A (HuTL1A) [2]) was ~1 nM and the “Ave Z-dia (nm)” value (human TL1A (HuTL1A) [1]) was 18.7 nm.

B4: single-arm antibody 4035 (antibody, human IgG1, kappa, L234A L235A)
heavy: ELQLQESGPGLVKPSETLSLTCAVSGISFNDFHWAWIRQPPGKGLEWIGDINHRGHTSYNPSLKSRVTVSVDTSKNQFSLKLSSVTAADTAVYYCARDYPNFTFDLWGQGTLVTVSSASTKGPSVFPLAPSSKSTSGGTAALGCLVKDYFPEPVTVSWNSGALTSGVHTFPAVLQSSGLYSLSSVVTVPSSSLGTQTYICNVNHKPSNTKVDKKVEPKSCDKTHTCPPCPAPEAAGGPSVFLFPPKPKDTLMISRTPEVTCVVVDVSHEDPEVKFNWYVDGVEVHNAKTKPREEQYNSTYRVVSVLTVLHQDWLNGKEYKCKVSNKALGAPIEKTISKAKGQPREPQVYTLPPCREEMTKNQVSLWCLVKGFYPSDIAVEWESNGQPENNYKTTPPVLDSDGSFFLYSKLTVDKSRWQQGNVFSCSVMHEALHNHYTQKSLSLSPG
light: not shown
chain: DKTHTCPPCPAPEAAGGPSVFLFPPKPKDTLMISRTPEVTCVVVDVSHEDPEVKFNWYVDGVEVHNAKTKPREEQYNSTYRVVSVLTVLHQDWLNGKEYKCKVSNKALGAPIEKTISKAKGQPREPQVCTLPPSREEMTKNQVSLSCAVKGFYPSDIAVEWESNGQPENNYKTTPPVLDSDGSFFLVSKLTVDKSRWQQGNVFSCSVMHEALHNHYTQKSLSLSPG
notes: Single-arm form of 3912; also called M701-4035
In the case of B4, the “EC50 (read off the curve)” value (human TL1A (HuTL1A) [3]) is reported as ~0.3 nM, the “EC50 (read off the curve)” value (human TL1A (HuTL1A) [4]) is reported as ~0.3 nM and the “EC50 (read off the curve)” value (human TL1A (HuTL1A) [5]) is reported as ~1 nM.

B5: single-arm antibody M701-3952 (antibody, human IgG1, kappa, L234A L235A)
heavy: B4 heavy with I27V, N30S, F32Y, S58N, V71I, Y94F, Y99F, T103I, L106Y
light: not shown
chain: B4 chain
B5 gave a Kd (human TL1A (HuTL1A) [6]) of 5.25 nM, a koff (human TL1A (HuTL1A) [6]) of 0.00306 s⁻¹ and a kon (human TL1A (HuTL1A) [6]) of 582000 M⁻¹ s⁻¹. It also gave a Kd [7] of 5.75 nM, a koff [7] of 0.0036 s⁻¹ and a kon [7] of 626000 M⁻¹ s⁻¹. For the same binder, the Kd (human TL1A (HuTL1A) [8]) was 5.68 nM, the koff (human TL1A (HuTL1A) [8]) was 0.00346 s⁻¹ and the kon (human TL1A (HuTL1A) [8]) was 610000 M⁻¹ s⁻¹. The “EC50 (read off the curve)” value (human TL1A (HuTL1A) [3]) was ~0.5 nM and the “EC50 (read off the curve)” value (human TL1A (HuTL1A) [4]) was ~0.5 nM.

B6: single-arm antibody 3900 (antibody, human IgG1, kappa, L234A L235A)
heavy: EVQLQESGPGLVKPSETLSLTCAVSGVSYSDYHWAWIRQPPGKGLEWIGDINHKGKTNYNPSLKSRVTISVDTSKNQFSLKLSSVTAADTAVYYCARDYPNFLFDYWGQGTLVTVSSASTKGPSVFPLAPSSKSTSGGTAALGCLVKDYFPEPVTVSWNSGALTSGVHTFPAVLQSSGLYSLSSVVTVPSSSLGTQTYICNVNHKPSNTKVDKKVEPKSCDKTHTCPPCPAPEAAGGPSVFLFPPKPKDTLMISRTPEVTCVVVDVSHEDPEVKFNWYVDGVEVHNAKTKPREEQYNSTYRVVSVLTVLHQDWLNGKEYKCKVSNKALGAPIEKTISKAKGQPREPQVYTLPPCREEMTKNQVSLWCLVKGFYPSDIAVEWESNGQPENNYKTTPPVLDSDGSFFLYSKLTVDKSRWQQGNVFSCSVMHEALHNHYTQKSLSLSPG
light: not shown
chain: B4 chain
notes: also called M701-3900
In the case of B6, the “EC50 (read off the curve)” value (human TL1A (HuTL1A) [3]) is reported as ~0.5 nM, the “EC50 (read off the curve)” value (human TL1A (HuTL1A) [4]) is reported as ~0.5 nM and the “EC50 (read off the curve)” value (human TL1A (HuTL1A) [5]) is reported as ~0.9 nM.

B7: single-arm antibody 3672 (antibody, human IgG1, kappa, L234A L235A)
heavy: ELQLQESGPGLVKPSETLSLTCAVSGLSFTDFYWAWIRQPPGKGLEWIGEINHKGNTSYNPSLKSRVTVSIDTSKNQFSLKLSSVTAADTAVYFCARDFPNYTFDFWGQGTLVTVSSASTKGPSVFPLAPSSKSTSGGTAALGCLVKDYFPEPVTVSWNSGALTSGVHTFPAVLQSSGLYSLSSVVTVPSSSLGTQTYICNVNHKPSNTKVDKKVEPKSCDKTHTCPPCPAPEAAGGPSVFLFPPKPKDTLMISRTPEVTCVVVDVSHEDPEVKFNWYVDGVEVHNAKTKPREEQYNSTYRVVSVLTVLHQDWLNGKEYKCKVSNKALGAPIEKTISKAKGQPREPQVYTLPPCREEMTKNQVSLWCLVKGFYPSDIAVEWESNGQPENNYKTTPPVLDSDGSFFLYSKLTVDKSRWQQGNVFSCSVMHEALHNHYTQKSLSLSPG
light: not shown
chain: B4 chain
notes: also called M701-3672
B7 was tested, and the “EC50 (read off the curve)” value (human TL1A (HuTL1A) [3]) was ~3 nM and the “EC50 (read off the curve)” value (human TL1A (HuTL1A) [4]) was ~3 nM.

B8: single-arm antibody M701-3990 (antibody, human IgG1, kappa, L234A L235A)
heavy: B4 heavy with I27V, N30T, F32Y, S58N, V71I, T103I, F104Y, L106Y
light: not shown
chain: B4 chain
notes: Single-arm form of 4019
In the case of B8, the Kd (human TL1A (HuTL1A) [6]) is reported as 4.26 nM, the koff (human TL1A (HuTL1A) [6]) is reported as 0.00168 s⁻¹ and the kon (human TL1A (HuTL1A) [6]) is reported as 394000 M⁻¹ s⁻¹. For the same binder, the Kd [7] was 4.51 nM, the koff [7] was 0.00208 s⁻¹ and the kon [7] was 462000 M⁻¹ s⁻¹. For the same binder, the Kd (human TL1A (HuTL1A) [8]) was 4.89 nM, the koff (human TL1A (HuTL1A) [8]) was 0.00214 s⁻¹ and the kon (human TL1A (HuTL1A) [8]) was 438000 M⁻¹ s⁻¹. For the same binder, the “EC50 (read off the curve)” value (human TL1A (HuTL1A) [3]) was ~0.4 nM, the “EC50 (read off the curve)” value (human TL1A (HuTL1A) [4]) was ~0.4 nM and the “EC50 (read off the curve)” value (human TL1A (HuTL1A) [5]) was ~1 nM.
